{
  "source": "paper PMC2747101",
  "binders": {"B1": {"name": "TNF receptor-associated factor 2 (natural protein)", "chain": "MAAASVTSPGSLELLQPGFSKTLLGTRLEAKYLCSACKNILRRPFQAQCGHRYCSFCLTSILSSGPQNCAACVYEGLYEEGISILESSSAFPDNAARREVESLPAVCPNDGCTWKGTLKEYESCHEGLCPFLLTECPACKGLVRLSEKEHHTEQECPKRSLSCQHCRAPCSHVDLEVHYEVCPKFPLTCDGCGKKKIPRETFQDHVRACSKCRVLCRFHTVGCSEMVETENLQDHELQRLREHLALLLSSFLEAQASPGTLNQVGPELLQRCQILEQKIATFENIVCVLNREVERVAVTAEACSRQHRLDQDKIEALSNKVQQLERSIGLKDLAMADLEQKVSELEVSTYDGVFIWKISDFTRKRQEAVAGRTPAIFSPAFYTSRYGYKMCLRVYLNGDGTGRGTHLSLFFVVMKGPNDALLQWPFNQKVTLMLLDHNNREHVIDAFRPDVTSSSFQRPVSDMNIASGCPLFCPVSKMEAKNSYVRDDAIFIKAIVDLTGL"}},
  "target": "hCD40ADD (human CD40 with its TRAF binding site PVQETLH changed to PVQATDD) (human) (UniProt P25942)",
  "assay": "co-IP",
  "data": [
    {"binder": "B1", "values": [
      {"measurement": "fold reduction of co-immunoprecipitated TRAF2 against hCD40", "result": 2, "unit": "fold"}
    ]}
  ]
}
